In paper PMC10953011, “Oxygen‐insensitive nitroreductase E. coli NfsA, but not NfsB, is inhibited by fumarate” (Proteins, 2022) one finds Km, kcat and kcat/Km data, which are given here for one protein.

Substrate in data set [1]: NC(=O)C1=CN([C@@H]2O[C@H](COP(=O)(O)OP(=O)(O)OC[C@H]3O[C@@H](n4cnc5c(N)ncnc54)[C@H](OP(=O)(O)O)[C@@H]3O)[C@@H](O)[C@H]2O)C=CC1
Briefly: purified protein. It counts as biochemical, Escherichia coli. The settings on record: FMN; pH 7.0; 25.0 °C.

Substrate in data set [2]: NC(=O)N/N=C/c1ccc([N+](=O)[O-])o1
The data set is described as follows: purified protein. Particulars: FMN; pH 7.0; 25.0 °C. It counts as biochemical, Escherichia coli.

B1: NfsA (Escherichia coli K-12) (protein)
chain: MTPTIELICGHRSIRHFTDEPISEAQREAIINSARATSSSSFLQCSSIIRITDKALREELVTLTGGQKHVAQAAEFWVFCADFNRHLQICPDAQLGLAEQLLLGVVDTAMMAQNALIAAESLGLGGVYIGGLRNNIEAVTKLLKLPQHVLPLFGLCLGWPADNPDLKPRLPASILVHENSYQPLDKGALAQYDEQLAEYYLTRGSNNRRDTWSDHIRRTIIKESRPFILDYLHKQGWATR
notes: untagged full-length
As to B1, in the data set “purified protein [1]”, the Michaelis-Menten constant (Km) stood at 29 ± 6 µM, the kcat came out at 25 ± 2 s⁻¹ and the kcat/Km is 860000 ± 100000 M⁻¹ s⁻¹. Also, in the data set “purified protein [2]”, the Km was found to be 27 ± 6 µM, the kcat was 25 ± 2 s⁻¹ and the specificity constant (kcat/Km) came to 930000 ± 100000 M⁻¹ s⁻¹.

A word on the Km: it is the concentration of substrate that gives half-maximal velocity. A word on the kcat: it is the maximal rate divided by the concentration of active sites. As usually defined, the kcat/Km is the turnover number divided by the Michaelis constant.
